Data on one substance can be found in article PMC12469269, “Investigating SMR Peptide Interactions with Breast Cancer-Associated Proteins” (International Journal of Molecular Sciences, 2025).

Experiment [1] has as its target Recombinant Human Vimentin Protein, CF (human) (UniProt P08670). The experiment can be described thus: SPR.
Experiment [2] addresses Recombinant Human GRP75/HSPA9B/Mortalin His Protein (human) (UniProt P38646). The experiment can be described thus: SPR. (In general: Surface plasmon resonance follows binding to a sensor surface in real time, without labels.)

Recombinant Human Vimentin Protein, CF (human), sequence (P08670 whole entry): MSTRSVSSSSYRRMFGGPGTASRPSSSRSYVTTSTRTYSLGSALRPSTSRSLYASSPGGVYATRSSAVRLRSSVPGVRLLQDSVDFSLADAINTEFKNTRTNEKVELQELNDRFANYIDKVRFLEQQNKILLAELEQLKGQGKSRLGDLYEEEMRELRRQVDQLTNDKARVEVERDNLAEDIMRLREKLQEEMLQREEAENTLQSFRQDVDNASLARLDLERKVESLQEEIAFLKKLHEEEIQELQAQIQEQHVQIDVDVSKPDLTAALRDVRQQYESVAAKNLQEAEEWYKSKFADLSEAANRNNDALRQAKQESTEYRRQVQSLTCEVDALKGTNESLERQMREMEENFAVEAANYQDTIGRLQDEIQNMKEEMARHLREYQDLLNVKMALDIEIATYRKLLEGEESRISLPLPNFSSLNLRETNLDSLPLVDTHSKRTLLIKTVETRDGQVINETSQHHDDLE
Recombinant Human GRP75/HSPA9B/Mortalin His Protein (human), sequence (P38646 47-679): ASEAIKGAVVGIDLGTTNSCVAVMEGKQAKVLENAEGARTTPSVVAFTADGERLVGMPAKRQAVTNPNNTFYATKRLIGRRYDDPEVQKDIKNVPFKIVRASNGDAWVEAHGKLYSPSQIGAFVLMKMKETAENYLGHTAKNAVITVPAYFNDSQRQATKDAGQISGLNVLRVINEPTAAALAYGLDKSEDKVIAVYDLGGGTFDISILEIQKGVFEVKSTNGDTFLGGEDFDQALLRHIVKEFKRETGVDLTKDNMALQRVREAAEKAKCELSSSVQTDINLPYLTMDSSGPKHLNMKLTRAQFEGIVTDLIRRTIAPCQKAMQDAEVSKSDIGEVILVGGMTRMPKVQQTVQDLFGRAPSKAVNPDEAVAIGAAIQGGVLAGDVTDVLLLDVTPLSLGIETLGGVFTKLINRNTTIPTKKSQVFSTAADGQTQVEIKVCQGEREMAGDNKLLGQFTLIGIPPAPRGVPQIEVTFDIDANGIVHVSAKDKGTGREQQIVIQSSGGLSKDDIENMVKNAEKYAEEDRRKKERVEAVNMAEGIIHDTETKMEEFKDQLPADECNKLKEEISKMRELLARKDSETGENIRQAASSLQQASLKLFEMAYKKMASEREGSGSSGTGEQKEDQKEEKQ

As to SMRwt peptide, the Kd in experiment [1] came out at 6.63 µM; in experiment [2], 20.7 µM.

For orientation: Kd means the equilibrium constant for the complex coming apart.
